{"source": "paper PMC3026782", "about": "“The Cytoskeletal Protein Ndel1 Regulates Dynamin 2 GTPase Activity” (PLoS ONE, 2011)", "key": {"GST-fused Dyn2": {"target": "T1, GST-fused Dyn2 (UniProt P50570 1-870)", "T1 sequence (looked up)": "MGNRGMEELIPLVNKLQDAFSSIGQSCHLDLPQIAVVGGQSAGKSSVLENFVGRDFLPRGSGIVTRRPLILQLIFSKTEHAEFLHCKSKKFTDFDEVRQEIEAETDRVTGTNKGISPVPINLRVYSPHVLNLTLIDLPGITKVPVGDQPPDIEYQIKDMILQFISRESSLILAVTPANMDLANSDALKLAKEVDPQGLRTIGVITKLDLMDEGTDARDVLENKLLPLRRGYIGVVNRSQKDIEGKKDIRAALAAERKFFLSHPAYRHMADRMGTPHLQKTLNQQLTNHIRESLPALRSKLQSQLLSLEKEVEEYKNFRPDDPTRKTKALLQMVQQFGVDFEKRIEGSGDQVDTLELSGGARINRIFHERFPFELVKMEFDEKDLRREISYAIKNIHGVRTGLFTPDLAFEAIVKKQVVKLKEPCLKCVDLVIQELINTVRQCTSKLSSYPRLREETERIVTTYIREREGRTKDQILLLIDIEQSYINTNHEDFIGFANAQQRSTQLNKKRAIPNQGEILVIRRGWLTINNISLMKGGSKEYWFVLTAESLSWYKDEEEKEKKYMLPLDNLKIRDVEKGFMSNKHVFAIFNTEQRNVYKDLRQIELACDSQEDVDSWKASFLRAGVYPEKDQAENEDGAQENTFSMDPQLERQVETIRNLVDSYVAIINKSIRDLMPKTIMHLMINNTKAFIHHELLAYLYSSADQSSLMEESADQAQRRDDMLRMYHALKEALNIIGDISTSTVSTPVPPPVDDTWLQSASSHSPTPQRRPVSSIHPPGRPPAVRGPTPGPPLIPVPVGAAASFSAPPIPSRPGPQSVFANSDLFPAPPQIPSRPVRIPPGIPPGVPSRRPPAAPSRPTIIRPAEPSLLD", "experiment": "cell-based or functional assay"}, "[1]": {"target": "T2, GST-Dyn2 F5 (GTPase+middle+PH+GED domains)", "T2 chain": "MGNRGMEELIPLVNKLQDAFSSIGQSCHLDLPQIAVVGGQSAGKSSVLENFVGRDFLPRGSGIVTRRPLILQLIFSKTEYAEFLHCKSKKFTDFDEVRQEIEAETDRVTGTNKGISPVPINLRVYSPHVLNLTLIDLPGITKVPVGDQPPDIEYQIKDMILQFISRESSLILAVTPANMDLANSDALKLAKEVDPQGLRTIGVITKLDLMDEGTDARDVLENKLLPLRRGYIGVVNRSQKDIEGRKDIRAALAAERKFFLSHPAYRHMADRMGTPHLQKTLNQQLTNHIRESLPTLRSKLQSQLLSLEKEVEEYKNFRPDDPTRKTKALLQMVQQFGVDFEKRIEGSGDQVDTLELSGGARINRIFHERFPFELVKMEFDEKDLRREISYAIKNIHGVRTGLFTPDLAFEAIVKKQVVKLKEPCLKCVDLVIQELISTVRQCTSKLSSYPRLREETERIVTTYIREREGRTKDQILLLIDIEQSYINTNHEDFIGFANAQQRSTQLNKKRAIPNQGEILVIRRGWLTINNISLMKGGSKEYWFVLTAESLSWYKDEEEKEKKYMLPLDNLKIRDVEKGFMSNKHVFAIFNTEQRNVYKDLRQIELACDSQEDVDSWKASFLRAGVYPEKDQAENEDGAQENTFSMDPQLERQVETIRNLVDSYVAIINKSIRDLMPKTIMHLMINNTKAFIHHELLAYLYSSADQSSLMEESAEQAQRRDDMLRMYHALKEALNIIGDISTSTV", "experiment": "cell-based or functional assay"}}}
{"binder": "His-tagged Ndel1 (natural protein, UniProt Q9GZM8 1-345, looked up) MDGEDIPDFSSLKEETAYWKELSLKYKQSFQEARDELVEFQEGSRELEAELEAQLVQAEQRNRDLQADNQRLKYEVEALKEKLEHQYAQSYKQVSVLEDDLSQTRAIKEQLHKYVRELEQANDDLERAKRATIVSLEDFEQRLNQAIERNAFLESELDEKESLLVSVQRLKDEARDLRQELAVRERQQEVTRKSAPSSPTLDCEKMDSAVQASLSLPATPVGKGTENTFPSPKAIPNGFGTSPLTPSARISALNIVGDLLRKVGALESKLAACRNFAKDQASRKSYISGNVNCGVLNGNGTKFSRSGHTSFFDKGAVNGFDPAPPPPGLGSSRPSSAPGMLPLSV", "values": [{"measurement": "radioactive GTPase assay: hydrolysis of GTP into GDP by Dyn2 oligomers (low salt) with against without Ndel1, over 60 minutes", "setting": "GST-fused Dyn2", "result": "~2", "unit": "fold"}, {"measurement": "non-radioactive (ELIPA) GTPase assay of F5 with against without Ndel1", "setting": "[1]", "result": "~1.3", "unit": "fold"}]}
